Measurements as given in article PMC9458691.

Columns and labels:
Assay in all cases: native gel or EMSA; Blue Native PAGE, gradient from 3.5 to 16% polyacrylamide, of the IEC fractions of affinity purified PSII
[1] = molecular target: PSII with the protein composition of mature PSII, isolated via CP43-TS-Tag (T. elongatus (endogenous in T. elongatus BP-1) | Thermosynechococcus elongatus BP-1) (UniProt P0A444)
[2] = molecular target: PSII with the protein composition of mature PSII, isolated via His-tagged CP43 (T. elongatus (endogenous in T. elongatus) | Thermosynechococcus elongatus) (UniProt P0A444)
[3] = molecular target: Psb27-PSII complex isolated via CP43-TS-Tag (PSII with Psb27, without the extrinsic subunits) (T. elongatus (endogenous in T. elongatus BP-1) | Thermosynechococcus elongatus BP-1) (UniProt P0A444)
[4] = molecular target: Psb27-PSII complex isolated via His-tagged CP43 (PSII with Psb27, without the extrinsic subunits) (T. elongatus (endogenous in T. elongatus) | Thermosynechococcus elongatus) (UniProt P0A444)

Substance: PSII with the protein composition of mature PSII, isolated via CP43-TS-Tag (from UniProt P0A444 1-344; Q8CM25 1-352; Q8DIF8 1-461; Q8DIQ1 1-510; P0A431 27-272; Q9F1L5 31-134; P0A386 27-163) (complex)
- stoichiometry N [1]: 2

Substance: PSII with the protein composition of mature PSII, isolated via His-tagged CP43 (from UniProt P0A444 1-344; Q8CM25 1-352; Q8DIF8 1-461; Q8DIQ1 1-510; P0A431 27-272; Q9F1L5 31-134; P0A386 27-163) (complex)
- stoichiometry N [2]: 2

Substance: Psb27-PSII complex isolated via CP43-TS-Tag (PSII with Psb27, without the extrinsic subunits) (from UniProt P0A444 1-344; Q8CM25 1-352; Q8DIF8 1-461; Q8DIQ1 1-510; Q8DG60 22-134)
- stoichiometry N [3]: 2

Substance: Psb27-PSII complex isolated via His-tagged CP43 (PSII with Psb27, without the extrinsic subunits) (from UniProt P0A444 1-344; Q8CM25 1-352; Q8DIF8 1-461; Q8DIQ1 1-510; Q8DG60 22-134)
- stoichiometry N [4]: 2
